# Assay results from doi:10.1101/2025.11.12.688043 (bioRxiv, 2025).
# B1: Saccharomyces cerevisiae TOK1, wild type (natural protein, UniProt P40310 1-691, looked up)
# chain: MTRFMNSFAKQTLGYGNMATVEQESSAQAVDSHSNNTPKQAKGVLAEELKDALRFRDERVSIINAEPSSTLFVFWFVVSCYFPVITACLGPVANTISIACVVEKWRSLKNNSVVTNPRSNDTDVLMNQVKTVFDPPGIFAVNIISLVLGFTSNIILMLHFSKKLTYLKSQLINITGWTIAGGMLLVDVIVCSLNDMPSIYSKTIGFWFACISSGLYLVCTIILTIHFIGYKLGKYPPTFNLLPNERSIMAYTVLLSLWLIWGAGMFSGLLHITYGNALYFCTVSLLTVGLGDILPKSVGAKIMVLIFSLSGVVLMGLIVFMTRSIIQKSSGPIFFFHRVEKGRSKSWKHYMDSSKNLSEREAFDLMKCIRQTASRKQHWFSLSVTIAIFMAFWLLGALVFKFAENWSYFNCIYFCFLCLLTIGYGDYAPRTGAGRAFFVIWALGAVPLMGAILSTVGDLLFDISTSLDIKIGESFNNKVKSIVFNGRQRALSFMVNTGEIFEESDTADGDLEENTTSSQSSQISEFNDNNSEENDSGVTSPPASLQESFSSLSKASSPEGILPLEYVSSAEYALQDSGTCNLRNLQELLKAVKKLHRICLADKDYTLSFSDWSYIHKLHLRNITDIEEYTRGPEFWISPDTPLKFPLNEPHFAFMMLFKNIEELVGNLVEDEELYKVISKRKFLGEHRKTL
# Target: the molecule itself
# Test: cryo-EM structure
protein,measurement,value
B1,stoichiometry N,2
